Test results reported in PMC7595633 (PLoS Neglected Tropical Diseases, 2020).
“And” between values parts separate entries of the source, which are not always exact repeats. Identical values can stand only once.

T1: Trypanosoma brucei selenocysteine lyase (TbSCLY), recombinant (Trypanosoma brucei, UniProt Q38DC4 1-451, pyridoxal-phosphate (PLP) bound to the active site)
T1 chain: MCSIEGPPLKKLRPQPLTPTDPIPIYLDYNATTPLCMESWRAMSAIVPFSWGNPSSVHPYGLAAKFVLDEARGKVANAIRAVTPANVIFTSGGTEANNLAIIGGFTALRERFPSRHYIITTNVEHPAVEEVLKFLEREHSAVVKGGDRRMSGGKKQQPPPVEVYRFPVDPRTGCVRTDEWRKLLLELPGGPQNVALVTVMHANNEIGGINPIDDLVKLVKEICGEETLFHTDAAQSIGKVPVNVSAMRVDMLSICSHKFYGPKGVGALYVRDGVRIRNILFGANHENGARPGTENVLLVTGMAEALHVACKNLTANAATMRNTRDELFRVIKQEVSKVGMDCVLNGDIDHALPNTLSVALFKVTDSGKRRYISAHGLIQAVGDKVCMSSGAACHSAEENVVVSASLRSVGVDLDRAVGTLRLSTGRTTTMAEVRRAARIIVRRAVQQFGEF


Tests used:
[1] = target: the molecule itself; test: native gel or EMSA; PhastGel gradient 8-25%, room temperature; 1 mg/mL (methods), 2 mg/mL (legend of Fig 1D); Coomassie stained
[2] = target: the molecule itself; test: AUC; sedimentation equilibrium; tetramer to dimers; 0.5, 0.75 and 1.0 mg/mL; 8,000, 10,000 and 12,000 rpm, 4°C; global fit in SEDPHAT
[3] = target: T1, Trypanosoma brucei selenocysteine lyase …; test: ITC

Binder | stoichiometry N [1] | Kd [2] [µM] | Kd [3] [µM]
ΔN(69)-LmSEPHS2, N-terminally truncated L. major selenophosphate synthetase (domain or fragment, Leishmania major, UniProt Q4Q0M0 70-398, looked up, selenophosphate synthetase SEPHS2 of Leishmania major, LmjF.36.5410, lacking the 69-residue N-terminal region; also called ΔN-LmSEPHS2) DVGMDCSIVPLHHTNSKGEALFLVSTTDFFFPSVSDPFLQGQIGAANVLSDLYSMGIPDCDTMLMLLAASTEMDEHERLITTREIMKGFAERARLATTTVTGGQTVMNPWPLIGGVAMAVVSEAEMVRPTGLLCAGDILVLTKPLGCQVAVNLKQWLLRPSPLYEEAIAGHISPEEIEELYNMATDSMRRLNREGARLMRKHGAHGATDVTGFGILGHANNFGAAQAVGDAPRSLCLVLERLPMFKTAVAASKQMNDKYRLLEGYSAETSGGLLVAFPSTTAAAAFCAELTAVDGGCPSWIVGHVEDRATNAVDGVYARLKDGYEIVEV | 2 and 4 |  | 
Leishmania major selenophosphate synthetase (LmSEPHS2), recombinant full-length (enzyme, UniProt Q4Q0M0 1-398, looked up, selenophosphate synthetase SEPHS2 of Leishmania major, LmjF.36.5410; also called LmSEPSH2) MSHKRPQSSAGESNGAVDLKTPRFDPVSLGLPAEFQLTDYTRLKGCSCKLPQPKLLALLQELSATPGQKDVGMDCSIVPLHHTNSKGEALFLVSTTDFFFPSVSDPFLQGQIGAANVLSDLYSMGIPDCDTMLMLLAASTEMDEHERLITTREIMKGFAERARLATTTVTGGQTVMNPWPLIGGVAMAVVSEAEMVRPTGLLCAGDILVLTKPLGCQVAVNLKQWLLRPSPLYEEAIAGHISPEEIEELYNMATDSMRRLNREGARLMRKHGAHGATDVTGFGILGHANNFGAAQAVGDAPRSLCLVLERLPMFKTAVAASKQMNDKYRLLEGYSAETSGGLLVAFPSTTAAAAFCAELTAVDGGCPSWIVGHVEDRATNAVDGVYARLKDGYEIVEV | 2 and 4 | 178 ± 10 | 
ΔN(70)-TbSEPHS2, residues 71-393 (domain or fragment, Trypanosoma brucei, UniProt Q38A34 71-393, looked up, selenophosphate synthetase SEPHS2 of Trypanosoma brucei, Tb927.10.9410, residues 71-393; Cloned into pET20b with the printed oligonucleotides; also called ΔN(70)-SEPHS2) CSIVKLQHKDETGKPLYMVSTTDFFFPSVEDPYLQGQIGAANVLSDLYSTGIDRCDTVLMLLAASTDMDKTEREVCTQEMMKGFVDHVRLAGSDVTGGQTVMNPWPLIGGIATSVVAESQMIRPTGLQPGDILVLTKPLGCQIAVNLKQWLRRPSPIFEEQIQGKMDSEEIEELYNAAADGMKRLNRMAAALMHSHGAHGATDVTGFGILGHAKNLGSAQKADVCLVLDSLPMYRGAVKASKLMGDKYRLFEGYAAETSGGLLVAFGTREEAEGYIRELYETDGEPAWVVGRVVRREGSAPYALLQKDYKIIEVGAKVNDKII | 2 and 4 |  | 
ΔN(25)-TbSEPHS2, amino acid residues 26-393 (domain or fragment, Trypanosoma brucei, UniProt Q38A34 26-393, looked up, selenophosphate synthetase SEPHS2 of Trypanosoma brucei, Tb927.10.9410, residues 26-393; Cloned into pET20b with the printed oligonucleotides) GLPEEFTLTDYTRLKGCSCKVPQPELLALLQSVSTTPGRRDVGMDCSIVKLQHKDETGKPLYMVSTTDFFFPSVEDPYLQGQIGAANVLSDLYSTGIDRCDTVLMLLAASTDMDKTEREVCTQEMMKGFVDHVRLAGSDVTGGQTVMNPWPLIGGIATSVVAESQMIRPTGLQPGDILVLTKPLGCQIAVNLKQWLRRPSPIFEEQIQGKMDSEEIEELYNAAADGMKRLNRMAAALMHSHGAHGATDVTGFGILGHAKNLGSAQKADVCLVLDSLPMYRGAVKASKLMGDKYRLFEGYAAETSGGLLVAFGTREEAEGYIRELYETDGEPAWVVGRVVRREGSAPYALLQKDYKIIEVGAKVNDKII | 2 and 4 |  | 
Trypanosoma brucei selenophosphate synthetase (TbSEPHS2), recombinant full-length (enzyme, UniProt Q38A34 1-393, looked up, selenophosphate synthetase SEPHS2 of Trypanosoma brucei, Tb927.10.9410, 393 residues (from the limits of the truncated constructs); also called SPS2; TbSPSH2) MSEKEGKVIPETNGMKRPRFDPVKLGLPEEFTLTDYTRLKGCSCKVPQPELLALLQSVSTTPGRRDVGMDCSIVKLQHKDETGKPLYMVSTTDFFFPSVEDPYLQGQIGAANVLSDLYSTGIDRCDTVLMLLAASTDMDKTEREVCTQEMMKGFVDHVRLAGSDVTGGQTVMNPWPLIGGIATSVVAESQMIRPTGLQPGDILVLTKPLGCQIAVNLKQWLRRPSPIFEEQIQGKMDSEEIEELYNAAADGMKRLNRMAAALMHSHGAHGATDVTGFGILGHAKNLGSAQKADVCLVLDSLPMYRGAVKASKLMGDKYRLFEGYAAETSGGLLVAFGTREEAEGYIRELYETDGEPAWVVGRVVRREGSAPYALLQKDYKIIEVGAKVNDKII |  |  | 5.2
